Reference: publication PMC4786428, “Recombinational branch migration by the RadA/Sms paralog of RecA in Escherichia coli”

T1: RadA (Sms) wild type (Escherichia coli, UniProt P24554 1-460)
T1 sequence: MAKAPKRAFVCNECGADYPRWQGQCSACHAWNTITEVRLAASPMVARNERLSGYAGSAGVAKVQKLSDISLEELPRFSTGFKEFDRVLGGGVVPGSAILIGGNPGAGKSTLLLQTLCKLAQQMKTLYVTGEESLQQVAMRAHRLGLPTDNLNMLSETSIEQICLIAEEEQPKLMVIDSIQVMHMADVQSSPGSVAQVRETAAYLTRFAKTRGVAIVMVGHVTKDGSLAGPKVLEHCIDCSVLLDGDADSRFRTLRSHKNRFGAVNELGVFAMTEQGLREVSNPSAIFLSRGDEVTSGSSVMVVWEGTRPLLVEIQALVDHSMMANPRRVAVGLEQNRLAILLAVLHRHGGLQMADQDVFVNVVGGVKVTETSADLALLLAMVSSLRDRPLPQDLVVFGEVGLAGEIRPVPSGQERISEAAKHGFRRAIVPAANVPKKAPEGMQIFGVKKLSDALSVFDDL


Experiments:
RadA (Sms) wild type [1] = target: T1, RadA (Sms) wild type; experiment: competition; unlabeled competitor vs labeled poly(dT)30, 1 mM ADP; 50 mM Tris-HCl pH 7.5, 10 mM MgCl2, 0.1 mM EDTA, 75 mM NaCl, 5 mM DTT, 100 ug/ml BSA, 1 mM nucleotide, 100 fmol DNA, 37 C for 20-30 min; 6% TBE polyacrylamide gel at room temperature; settings: protein: recombinant; tags: eXact tag cleaved; 2 extra N-terminal residues Thr-Ser remain; chain copies: 6
RadA (Sms) wild type [2] = target: T1, RadA (Sms) wild type; experiment: EMSA; 1 mM ADP (standard); apparent; Hill coefficient 1.5; 50 mM Tris-HCl pH 7.5, 10 mM MgCl2, 0.1 mM EDTA, 75 mM NaCl, 5 mM DTT, 100 ug/ml BSA, 1 mM nucleotide, 100 fmol DNA, 37 C for 20-30 min; 6% TBE polyacrylamide gel at room temperature; settings: protein: recombinant; tags: eXact tag cleaved; 2 extra N-terminal residues Thr-Ser remain; chain copies: 6

Binder | binding result (RadA (Sms) wild type [1]) | Kd (RadA (Sms) wild type [2])
AAAAAAAAAAAAAAAAAAAAAAAAAAAAAAAAA (ssDNA) [poly(dA)33] | no binding | 
TTTTTTTTTTTTTTTTTTTTTTTTTTTTTT (ssDNA) [poly(dT)30] |  | 110 ± 14 nM
